In patent publication US20210179715A1 (Genentech, published 2021):
Values joined by “and” are separate entries in the source; they are usually repeats but may differ in a detail not shown here. Identical values can stand only once. Like-named read-outs stand apart in the source and are kept apart here.

Tests used:
LY6G6D on HT55 cells = biological target: T1, LY6G6D on HT55 cells (human, UniProt O95868 20-104); experiment: cell-based or functional assay
T1 sequence: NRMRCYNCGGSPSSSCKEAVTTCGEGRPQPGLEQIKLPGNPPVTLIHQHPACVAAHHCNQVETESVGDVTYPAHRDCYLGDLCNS

[1] = biological target: T2, 27mer human CD3 polypeptide conjugated to biotin (human, conjugated to biotin (site not stated)); experiment: BIAcore T200 SPR; biotin 27mer CD3 peptide on SA chip; TDB flowed; 37 C
T2 construct: The assay text says only '27mer human CD3 polypeptide'; also called HuCD3e pept biotin
T2 peptide: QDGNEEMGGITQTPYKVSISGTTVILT
Experimental: Assays were performed using a BIAcore T200. 27mer human and cyno CD3 polypeptides were conjugated to biotin and were immobilized on a SA CM5 chip. LY6G6D TDBs were flowed through at 37° C.

human LY6G6D-Fc [2] = biological target: T3, human LY6G6D-Fc (human, UniProt O95868 20-104); experiment: BIAcore SPR; LY6G6D-Fc on chip; TDB flowed; 37 C
T3 construct: also called hu Ly6G6D; huLY6G6D; not shown: linker and Fc part
T3 sequence: T1 sequence
Experimental: TDBs comprising the anti-LY6G6D arm 20Al2.QNTv12 and the anti-CD3 38E4.v1 (left panel; produced using a two-cell-manufacturing system), 38E4.v1 MD1 (center panel; produced using a one-cell-manufacturing system), or 38E4.v1 MD4 arm (right panel; produced using a one-cell-manufacturing system) were assayed for affinity for a human Ly6G6D polypeptide (FIG. 25) using a BIAcore assay.

[3] = biological target: T4, cyno extracellular domain (ECD) of CD3 (cynomolgus monkey, UniProt Q95LI5 22-117); experiment: BIAcore SPR; two-cell TDB
T4 construct: extracellular domain; also called CyCD3
T4 sequence (looked up): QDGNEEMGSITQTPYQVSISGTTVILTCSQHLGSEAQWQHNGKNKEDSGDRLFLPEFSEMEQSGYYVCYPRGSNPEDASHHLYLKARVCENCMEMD

human LY6G6D-Fc [4] = biological target: T3, human LY6G6D-Fc; experiment: BIAcore SPR; two-cell TDB
[5] = biological target: T5, human extracellular domain (ECD) of CD3 (human, UniProt P07766 23-126); experiment: BIAcore SPR; two-cell TDB
T5 construct: extracellular domain; also called huCD3
T5 sequence (P07766 23-126): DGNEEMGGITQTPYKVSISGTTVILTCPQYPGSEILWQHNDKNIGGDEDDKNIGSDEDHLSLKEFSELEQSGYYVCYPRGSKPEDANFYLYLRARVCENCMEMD

[6] = biological target: T2, 27mer human CD3 polypeptide conjugated …; experiment: BIAcore T200 SPR; biotin 27mer CD3 peptide on SA chip; TDB flowed; 37 C
Experimental: The MD1 and MD4 variants thus retained the high affinity of 38E4v1. Assays were performed using a BIAcore T200: 27mer human and cyno CD3 polypeptides were conjugated to biotin and were immobilized on a SA CM5 chip, and TDBs were flowed through at 100 μl/min at 37° C.

human LY6G6D-Fc [7] = biological target: T3, human LY6G6D-Fc; experiment: BIAcore SPR; LY6G6D-Fc on chip; TDB flowed; 37 C; remark: listed apart in the source
Experimental: The humanized rb.20A12 variant 20A12.QNTv12, the humanized rb.6E10 variant 6E10.v114, and the anti-LY6G6D 1G4 arm were paired with the anti-CD3 38E4v1 or 40G5c arm as TDBs and tested for affinity to human and cynomolgus LY6G6D in a BIAcore® assay. Rabbit 20Al2, rabbit 6E10, and humanized 20A12.QNTv12 and 20A12.SNVv12 were additionally assayed for binding as antigen-binding fragments (Fabs). LY6G6D-Fc was directly immobilized on a chip, and TDBs were flowed through at 37° C., except for the rb6E10 Fab, which was assayed at 25° C.

B1: LY6G6D TDB comprising the anti-LY6G6D 20A12.QNTv12 arm (two-cell) and the anti-CD3 38E4v1 arm (bispecific antibody, V domains shown)
VH 1: EVQLLESGGGLVQPGGSLRLSCAASGFDFVNNAMIWVRQAPGKGLEWVSALSFADNTAYYATWASGRFTISRDSSKTTVYLQMNSLRAEDTAVYYCMRGDLWGPGTLVTVSS
VL 1: DIQMTQSPSTLSASVGDRVTITCQASESITRYLNWYQQKPGKAPKLLIYDASKLPSGVPSRFSGSGSGTEFTLTISSLQPDDFATYYCQSTSFRGRSYQNTFGGGTKVEIK
VH 2: EVQLVQSGAEVKKPGASVKVSCKASGFTFTSYYIHWVRQAPGQGLEWIGWIYPENDNTKYNEKFKDRVTITADTSTSTAYLELSSLRSEDTAVYYCARDGYSRYYFDYWGQGTLVTVSS
VL 2: DIVMTQSPDSLAVSLGERATINCKSSQSLLNSRTRKNYLAWYQQKPGQSPKLLIYWTSTRKSGVPDRFSGSGSGTDFTLTISSLQAEDVAVYYCKQSFILRTFGQGTKVEIK
notes: Full-length IgG1 kappa; also called hu20A12.QNTv12/38E4v1 TDB; 20A12.QNTv12/38E4v1
- average CD8+T cell activation EC50 (LY6G6D on HT55 cells): ~87 ng/ml and ~583 pM
- average cell killing EC50 (LY6G6D on HT55 cells): ~1.04 ng/ml and ~7 pM
- Kd [1]: 19.8 nM
- Kd (human LY6G6D-Fc [2]): 1.39 nM
- koff (human LY6G6D-Fc [2]): 0.000416 s⁻¹
- kon (human LY6G6D-Fc [2]): 299000 M⁻¹ s⁻¹
- Kd [3]: 15 nM
- Kd (human LY6G6D-Fc [4]): 2.02 nM
- Kd [5]: 20 nM
- Kd [6]: 17.6 nM and 21.9 nM
- koff [6]: 0.0429 s⁻¹ and 0.0486 s⁻¹
- kon [6]: 2.44e+06 M⁻¹ s⁻¹ and 2.22e+06 M⁻¹ s⁻¹
- Kd (human LY6G6D-Fc [7]): 2.02 nM
- koff (human LY6G6D-Fc [7]): 0.000444 s⁻¹
- kon (human LY6G6D-Fc [7]): 220000 M⁻¹ s⁻¹
